Data on four molecules can be found in patent US20150216970A1 (Genentech, published 2015).

The chains are these.
T1: CD226-Flag (Flag-tagged human CD226, expressed in transfected COS 7 cells) (human, UniProt Q15762 19-336)
T1 construct: whole, on cells; This is the construct of the co-immunoprecipitation; Cells were lysed before the pull-down; also called Flag-CD226; not shown: Flag tag
T1 sequence (looked up): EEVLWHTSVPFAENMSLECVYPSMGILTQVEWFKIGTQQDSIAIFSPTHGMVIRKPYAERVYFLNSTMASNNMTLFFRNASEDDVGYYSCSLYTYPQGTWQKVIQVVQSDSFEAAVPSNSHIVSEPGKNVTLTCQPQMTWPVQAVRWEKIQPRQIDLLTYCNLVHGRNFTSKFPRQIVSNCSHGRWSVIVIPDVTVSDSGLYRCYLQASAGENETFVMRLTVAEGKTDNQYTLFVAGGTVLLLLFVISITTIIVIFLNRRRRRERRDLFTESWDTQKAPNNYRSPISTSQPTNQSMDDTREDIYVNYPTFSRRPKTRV

T2: endogenous CD226 on primary human T cells (human, UniProt Q15762 19-336)
T2 construct: whole, on cells
T2 sequence (looked up): T1 sequence (looked up)

B1: HA-TIGIT (N-terminus HA-tagged human TIGIT, expressed on transfected COS-7 or CHO cells) (receptor, UniProt Q495A1 22-244, looked up)
chain: MMTGTIETTGNISAEKGGSIILQCHLSSTTAQVTQVNWEQQDQLLAICNADLGWHISPSFKDRVAPGPGLGLTLQSLTVNDTGEYFCIYHTYPDGTYTGRIFLEVLESSVAEHGARFQIPLLGAMAATLVVICTAVIVVVALTRKKKALRIHSVEGDLRRKSAGQEEWSPSAPSPPGSCVQAEAAPAGLCGEQRGEDCAELHDYFNVLSYRSLGNCSFFTETG
notes: whole, on cells; It is treated here as one construct; also called TIGIT-HA; HA-TIGIT (WT); not shown: HA tag at the N-terminus
B2: endogenous TIGIT on primary human T cells (receptor, UniProt Q495A1 22-244, looked up)
chain: B1 chain
notes: whole, on cells
B3: HA-TIGIT Q56R (receptor, UniProt Q495A1 22-244, looked up)
chain: B1 chain with Q35R
notes: whole, on cells; also called Q56R TIGIT; not shown: HA tag
B4: Flag-ST-CD226 (N-terminus SNAP-tagged human CD226, expressed on transfected COS-7 or CHO cells) (receptor, UniProt Q15762 19-336, looked up)
chain: T1 sequence (looked up)
modifications: SNAP tag labelled with benzyl-guanine SNAP-Lumi-4Tb (donor) and/or SNAP-A647 (acceptor)
notes: whole, on cells; also called SNAP-tagged (ST) CD226; human ST-CD226; not shown: Flag tag; SNAP tag (ST)

Residue numbers refer to the chain shown, from its start. Names and notes keep the numbering of the source.

The target of data set [1] is B4. The data set can be described thus: TR-FRET on transfected COS-7 cells. For orientation: Time-resolved FRET reads energy transfer from a long-lived donor to a nearby acceptor.
Data set [2] has as its target T1, CD226-Flag (Flag-tagged human CD226, …). The data set can be described thus: anti-FLAG and anti-HA immunoprecipitation and immunoblot from COS-7 cells transfected with Flag-CD226 and HA-TIGIT. A general note: Immunoblotting shows a protein as a band on a membrane.
The target in data set [3] is T2, endogenous CD226 on primary human T …. The data set can be described thus: TR-FRET on primary human T cells with fluorophore-conjugated anti-TIGIT (clone 1F4) and anti-CD226. The source says: Primary human T cells were stimulated in vitro with anti-CD3 and anti-CD28 antibodies, sorted on the basis of TIGIT expression, rested, re-stimulated, and labeled with antibodies against endogenous TIGIT and CD226 that were conjugated to fluorophores compatible with TR-FRET. TIGIT-expressing T cells labeled with donor-conjugated anti-TIGIT and acceptor-conjugated anti-CD226 antibodies yielded a strong FRET signal (FIG. 30).
Human anti-TIGIT (Genentech clone 1F4), anti-CD226 (Santa Cruz Biotechnology), and anti-HVEM (eBioscience) antibodies were conjugated fluorophores compatible with TR-FRET (Cisbio). Primary human T cells were MACS-enriched from blood, stimulated in vitro with plate bound anti-CD3 and anti-CD28 for 72 hours. TIGIT-expressing and non-expressing T cells (all expressing CD226) were then sorted, rested without stimulation for 72 hours, and re-stimulated for 48 hours. […] T cells were then seeded at 400,000 cells/well in a white 96-well plate (Costar) and TR-FRET was recorded at 665 nm for 400 μs after a 60 μs delay following laser excitation at 343 nm using a PHERAstar plate reader (BMG Labtech). FRET intensity was expressed as the signal at 665 nm from cells labeled with Ab-Lumi4-Tb+Ab-d2 minus the signal at 665 nm from the same batch of cells labeled with Ab-Lumi4-Tb alone. […]

For data set [4], the target named is B4. The data set can be described thus: TR-FRET ratio between Flag-ST-CD226 and HA-TIGIT Q56R.
Data set [5] deals with the molecule itself. The data set can be described thus: TR-FRET on COS-7 cells. Here is the method:
Briefly, COS-7 cells were transfected with SNAP-tagged (ST) CD226 and HA-TIGIT using Lipofectamine 2000 (Life Technologies) and seeded in a white 96-well plate (Costar) at 100,000 cells per well. 24 hours later, cells were labeled with 100 nM of donor-conjugated benzyl-guanine SNAP-Lumi-4Tb (Cisbio) and 1 μM […] benzyl-guanine SNAP-A647 (New England Biolabs) diluted in DMEM 10% FCS for 1 h at 37° C., 5% CO2. After three washes in PBS, the FRET signal was recorded at 665 nm for 400 μs after a 60 μs delay following laser excitation at 343 nm using a Safire2 plate reader (Tecan). When the anti-TIGIT antibody was tested, the FRET signal was also recorded after a 15 min incubation. The FRET ratio was then calculated as the FRET intensity divided by the donor emission at 620 nm. The FRET intensity being: (signal at 665 nm from cells labeled with SNAP-donor and acceptor)—(signal at 665 nm from the same batch of transfected cells labeled with SNAP-donor only).

B1: the binding result in data set [1] and in data set [2] was “binds” each time. Turning to B2, in data set [3], the binding result is given as “binds”.

Turning to B3, the binding result in data set [4] is “binds”.

As for B4, the binding result in data set [5] is on record as “binds”.
